Assays:
male C57BI6 mice = experiment: 2/3 partial hepatectomy in mice; assay type: in vivo, mouse
Experimental: Forty-eight male C57BI6 mice aged 10-12 weeks underwent either 2/3 partial hepatectomy, paracetamol intoxication or chronic liver injury plus 2/3 partial hepatectomy. 2/3 partial hepatectomy was performed by ligating the left lobe and left and right median lobes. Paracetamol intoxication was performed by intraperitoneal administration of 350 mg/kg paracetamol dissolved in phosphate buffered saline (PBS). Chronic liver injury plus 2/3 partial hepatectomy was performed by eight weeks intraperitoneal carbon tetrachloride administration 1 mcl/g twice weekly dissolved in olive oil followed by ⅔ partial hepatectomy as described above. […] Control mice (n=8 per injury model) received subcutaneous PBS of appropriate volume. […]
Following a midline laparotomy the liver was excised and weighed. Liver weight to body weight ratio was calculated and expressed as a percentage. Livers were fixed in 4% formalin overnight then transferred to 70% ethanol. Livers were then embedded in paraffin blocks and 4 μm sections cut. Immunohistochemistry for Ki67 (a marker of cellular proliferation expressed throughout the cell cycle) was performed following heat mediated antigen retrieval in Tris/EDTA solution at pH9. Hepatocyte proliferation was quantified by counting ki67 positive hepatocytes in 20 high powered fields (400×) per animal and the mean calculated. […]

C57BI6 male mice = experiment: Hepatic phagocytic ability after paracetamol intoxication (gene analysis, bead clearance assay, ex vivo imaging); assay type: in vivo, mouse
Experimental: C57BI6 male mice (8-10 weeks) underwent either partial hepatectomy (⅔ resection) or paracetamol intoxication (350 mg/kg intraperitoneal following overnight fast). CSF1-Fc was administered as previous (0.75 mg/kg). Gene analysis was performed using Qiagen Quantitect Primers (MSR1 and MARCO) and related to GAPDH level for each sample. […] 0.1 mls of 5000 IU/ml heparin solution was infused to prevent blockage of the catheter. 100 μl of red fluorescent bead solution (1:5 Latex beads 1.0 μm, fluorescent red, SIGMA-ALDRICH®) was infused through the cannula (1:2 solution for assay following paracetamol injury). 20 mcl of blood was removed from the cannula every two minutes starting from 1 minute post injection for 15 minutes. Blood was immediately fixed with 300 μl FACS-Lysing solution (BD Biosceinces). After 15 minutes mice were perfused with 15 mls 0.9% saline through the IVC cannula after dividing the portal vein for outflow. Organs were then removed (Liver, spleen, lungs, kidney, brain) and imaged with a Kodak In-Vivo Multispectral FX image station (Excitation: 550 nm; Emission: 600 nm; Exposure 1 sec; f-stop 2.8). Subsequently blood samples were analysed using a LSR-Fortessa™ flow cytometer (BD Biosciences) with fluorescent beads detected on the blue channel (B695/40) by a 1 minute sample collection on low flow rate setting.

[1] = administered immediately following 2/3 partial hepatectomy, vs control
[2] = day 2 following partial hepatectomy, vs controls
[3] = day 2 following paracetamol intoxication

B1: Fc-CSF-1: active fragment of porcine CSF-1 (SEQ ID NO:1) linked to the hinge-CH3 region of porcine IgG1a (SEQ ID NO:2) (protein, listed as Sus scrofa)
chain: SENCSHMIGDGHLKVLQQLIDSQMETSCQIAFEFVDQEQLTDPVCYLKKAFLQVQDILDETMRFRDNTPNANVIVQLQELSLRLNSCFTKDYEEQDKACVRTFYETPLQLLEKIKNVFNETKNLLKKDWNIFSKNCNNSFAKCSSQHERQPEGRGTKTKPPCPICPGCEVAGPSVFIFPPKPKDTLMISQTPEVTCVVVDVSKEHAEVQFSWYVDGVEVHTAETRPKEEQFNSTYRVVSVLPIQHQDWLKGKEFKCKVNNVDLPAPITRTISKAIGQSREPQVYTLPPPAEELSRSKVTVTCLVIGFYPPDIHVEWKSNGQPEPEGNYRTTPPQQDVDGTFFLYSKLAVDKARWDHGETFECAVMHEALHNHYTQKSISKTQGK
hepatocyte proliferation (male C57BI6 mice; [1]): increasing
liver weight to body weight ratio (male C57BI6 mice; [1]): significantly increasing
gene expression of oncostatin M (OSM) (male C57BI6 mice; [2]): significantly enhanced
gene expression of pro-regenerative cytokine 116 (male C57BI6 mice; [2]): significantly enhanced
urokinase receptor (UR) expression (male C57BI6 mice; following partial hepatectomy, vs controls): significantly elevated
MARCO gene expression, whole liver (C57BI6 male mice; [3]): upregulation
MSR1 (macrophage scavenger receptor 1) gene expression, whole liver (C57BI6 male mice; [3]): upregulation
clearance of latex microbeads from the circulation (C57BI6 male mice; paracetamol model): did not notice enhanced clearance
hepatic fluorescence, ex vivo imaging (C57BI6 male mice; paracetamol model): significant increase
